# Measured values reported in patent WO2020148554A1 (dated 2020).
# T1: Sudan Gulu glycoprotein (NC_006432.1) expressed on MDCK-SIAT1 cells (Sudan Gulu (SUDV), UniProt Q7T9D9 33-676)
# T1 sequence: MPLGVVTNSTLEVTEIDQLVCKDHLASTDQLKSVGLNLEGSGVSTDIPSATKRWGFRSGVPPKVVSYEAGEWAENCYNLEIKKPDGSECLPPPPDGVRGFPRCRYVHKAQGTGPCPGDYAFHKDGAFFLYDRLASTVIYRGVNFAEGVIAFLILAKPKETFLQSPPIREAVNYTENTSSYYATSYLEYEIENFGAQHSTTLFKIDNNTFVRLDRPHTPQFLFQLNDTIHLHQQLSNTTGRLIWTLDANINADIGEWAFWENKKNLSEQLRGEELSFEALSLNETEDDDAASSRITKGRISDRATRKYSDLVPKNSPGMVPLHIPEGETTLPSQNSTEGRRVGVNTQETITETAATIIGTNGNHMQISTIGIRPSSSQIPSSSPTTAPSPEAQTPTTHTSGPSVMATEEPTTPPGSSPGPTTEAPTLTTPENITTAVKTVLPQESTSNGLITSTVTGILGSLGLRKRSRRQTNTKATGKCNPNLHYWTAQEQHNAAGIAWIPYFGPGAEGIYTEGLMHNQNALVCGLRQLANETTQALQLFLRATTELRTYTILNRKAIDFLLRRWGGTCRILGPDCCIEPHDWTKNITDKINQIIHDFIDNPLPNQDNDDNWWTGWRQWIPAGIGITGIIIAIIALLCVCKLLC
# Biological target: T1, Sudan Gulu glycoprotein (NC_006432.1) …
# Test: indirect immunofluorescence by FACS on MDCK-SIAT1 cells expressing GP
row,Binder,binding result
1,"6541 (antibody, V domains shown) VH: EVQLVQWGAGLLKPSETLSLTCAVYGGSFSGNYWTWIRQPPGKGLEWIGEINHSGSTNYNPSLKSRVTISVDTSKNQFSLKLSSVTAADTAVYYCATKMGGYGDYWHWYFDLWGRGTMVTVSS VL: EVVMTQSPATLSVSPGERATLSCRASQSLFTNLAWYQQKPGQAPRLLIYGASTRATGIPARFSGSGSGTDFSLTISRLQSEDFAFYYCQQYNDWPLTFGGGTKVDIKR",binds
2,"6662 (antibody, V domains shown) VH: EVQLVESGGGLVKPGGSLRLSCAASGFGFSSAWMNWVRQAPGKGLEWVGRIKSKTDGGKTDYAAPVKGRFIMSRDDSKNTLYLQMNSLKTEDAGVYYCTTRIVLNGMDVWGQGTLVTVSS VL: QSVLTQPPSVSGAPGQRVTISCTGSSSNIGAGYDVHWYQQLPGTAPKLLIYANNNRPSGVPDRFSGSKSGTSASLAITGLQAEDEADYYCQSYDSRLSDGVVFGGGTKLTVLG",binds
3,"66-3-9C (antibody, V domains shown) VH: EVQLVESGGGLVKPGGSLRLSCAASGFTFSSYNMNWVRQAPGKGLEWVSSITTSSSYIYYAYSVKGRFTISRDNAKNSLYLQMNSLRAEDTAVYYCARFLGYSYGTNYYYYGMDVWGQGTTVTVSS VL: not shown",binds
4,"040 (antibody, V domains shown) VH: QVQLVESGGGFVQPGGSLRLSCAASGFTFSSYAMSWVRQAPGKGLEWVSTISGSGGTTYYADSVKGRFTISRDNSKNTLYLEMITLRAEDTATYFCANSYYYHSSGLLIRWDDMDVWGQGTTVTVSS VL: DIQMTQSPSSLSASVGDRVTITCRASQGIRNDLGWYQQKPGKAPKRLIYAASSLQSGVPSRFSGSGSGTEFTLTISSLQPEDFATYYCLQHSSYPWTFGQGTKVEIKR",binds
